Values belong to the molecule of their own block, whether it stands above or below them.
Biological target: human CD3-ε (human) (UniProt P07766)
Chain of UniProt P07766 (P07766 23-207): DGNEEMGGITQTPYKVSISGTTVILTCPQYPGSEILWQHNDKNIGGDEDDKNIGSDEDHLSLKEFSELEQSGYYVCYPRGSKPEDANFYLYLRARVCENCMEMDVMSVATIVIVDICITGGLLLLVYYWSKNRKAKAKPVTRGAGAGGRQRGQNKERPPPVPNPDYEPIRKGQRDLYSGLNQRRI

Proliferation (day 3, cpm × 10^-3), Purified T Cells + (0.5 ng/ml PMA): 83.6 cpm × 10^-3
Molecule: native anti-CD3 Mab G19-4 (antibody)

Proliferation (day 3, cpm × 10^-3), Purified T Cells + (2 µg/ml 9.3): 58.4 cpm × 10^-3
Molecule: G19-4 Fab

Proliferation (day 3, cpm × 10^-3), Purified T Cells + (0.5 ng/ml PMA): 65 cpm × 10^-3
B1: CD3 sFv (VL-VH, no tag) (scFv)
scFv: VDIQMTQTTSSLSASLGDRVTISCRASQDIRNYLNWYQQKPDGTVKLLIYYTSRLHSGVPSRFSGSGSGTDYSLTIANLQPEDIATYFCQQGNTLPWTFGGGTKLVTKRELGGGGSGGGGSGGGGSIDEVQLQQSGPELVKPGASMTMSCKASGYSFTGYIVNWLKQSHGKNLEWIGLINPWKGLTTYNQKFKGKATLTVDKSSSTAYMELLSLTSEDSAVYYCARSGYYGDSDWYFDVWGAGTTCTVSSFESDQSNSEEAKKEEAKKEEAKKSNSLESL
